# B1: Mothers against decapentaplegic homolog 4 (Homo sapiens), Q13485 (parent)
# chain: MDNMSITNTPTSNDACLSIVHSLMCHRQGGESETFAKRAIESLVKKLKEKKDELDSLITAITTNGAHPSKCVTIQRTLDGRLQVAGRKGFPHVIYARLWRWPDLHKNELKHVKYCQYAFDLKCDSVCVNPYHYERVVSPGIDLSGLTLQSNAPSSMMVKDEYVHDFEGQPSLSTEGHSIQTIQHPPSNRASTETYSTPALLAPSESNATSTANFPNIPVASTSQPASILGGSHSEGLLQIASGPQPGQQQNGFTGQPATYHHNSTTTWTGSRTAPYTPNLPHHQNGHLQHHPPMPPHPGHYWPVHNELAFQPPISNHPAPEYWCSIAYFEMDVQVGETFKVPSSCPIVTVDGYVDPSGGDRFCLGQLSNVHRTEAIERARLHIGKGVQLECKGEGDVWVRCLSDHAVFVQSYYLDREAGRAPGDAVHKIYPSAYIKVFDLRQCHRQMQQQAATAQAAAAAQAAAVAGNIPGPGSVGGIAPAISLSAAAGIGVDDLRRLCILRMSFVKGWGPDYPRQSIKETPCWIEIHLHRALQLLDEVLHTMPIADPQPLD
# Variants of: B1
# Settings: with smad3_human SMAD3, P84022
# Sequence of smad3_human SMAD3, P84022 (P84022 whole entry, looked up): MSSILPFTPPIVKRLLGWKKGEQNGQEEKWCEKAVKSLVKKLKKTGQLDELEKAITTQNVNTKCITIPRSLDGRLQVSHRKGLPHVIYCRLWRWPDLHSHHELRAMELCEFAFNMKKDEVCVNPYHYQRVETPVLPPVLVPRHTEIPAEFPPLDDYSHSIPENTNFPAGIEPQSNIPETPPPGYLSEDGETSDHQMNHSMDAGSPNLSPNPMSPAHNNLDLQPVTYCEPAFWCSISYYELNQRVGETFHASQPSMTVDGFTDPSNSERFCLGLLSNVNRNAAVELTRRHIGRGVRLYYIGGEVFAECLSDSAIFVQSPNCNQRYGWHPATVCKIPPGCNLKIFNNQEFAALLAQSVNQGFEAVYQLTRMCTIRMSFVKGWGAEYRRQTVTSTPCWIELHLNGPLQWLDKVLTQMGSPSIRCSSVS
row,effect of a mutation on the interaction,Variant
1,decreasing interaction strength,R361H
2,decreasing interaction strength,R361C

# Variants of: B1
# Settings: with smad3_human SMAD3, P84022
# Remark: another data set of the same source
row,effect of a mutation on the interaction,Variant
1,increasing interaction strength,I500V

# — IntAct's records for PubMed 39243984
